The results in this text go back to publication PMC8087788, “Parallel G-quadruplexes recruit the HSV-1 transcription factor ICP4 to promote viral transcription in herpes virus-infected human cells”.

The target of series [1] is T1, ICP4 (nuclear extract) (HSV-1 strain F) (UniProt P08392).
T1 sequence: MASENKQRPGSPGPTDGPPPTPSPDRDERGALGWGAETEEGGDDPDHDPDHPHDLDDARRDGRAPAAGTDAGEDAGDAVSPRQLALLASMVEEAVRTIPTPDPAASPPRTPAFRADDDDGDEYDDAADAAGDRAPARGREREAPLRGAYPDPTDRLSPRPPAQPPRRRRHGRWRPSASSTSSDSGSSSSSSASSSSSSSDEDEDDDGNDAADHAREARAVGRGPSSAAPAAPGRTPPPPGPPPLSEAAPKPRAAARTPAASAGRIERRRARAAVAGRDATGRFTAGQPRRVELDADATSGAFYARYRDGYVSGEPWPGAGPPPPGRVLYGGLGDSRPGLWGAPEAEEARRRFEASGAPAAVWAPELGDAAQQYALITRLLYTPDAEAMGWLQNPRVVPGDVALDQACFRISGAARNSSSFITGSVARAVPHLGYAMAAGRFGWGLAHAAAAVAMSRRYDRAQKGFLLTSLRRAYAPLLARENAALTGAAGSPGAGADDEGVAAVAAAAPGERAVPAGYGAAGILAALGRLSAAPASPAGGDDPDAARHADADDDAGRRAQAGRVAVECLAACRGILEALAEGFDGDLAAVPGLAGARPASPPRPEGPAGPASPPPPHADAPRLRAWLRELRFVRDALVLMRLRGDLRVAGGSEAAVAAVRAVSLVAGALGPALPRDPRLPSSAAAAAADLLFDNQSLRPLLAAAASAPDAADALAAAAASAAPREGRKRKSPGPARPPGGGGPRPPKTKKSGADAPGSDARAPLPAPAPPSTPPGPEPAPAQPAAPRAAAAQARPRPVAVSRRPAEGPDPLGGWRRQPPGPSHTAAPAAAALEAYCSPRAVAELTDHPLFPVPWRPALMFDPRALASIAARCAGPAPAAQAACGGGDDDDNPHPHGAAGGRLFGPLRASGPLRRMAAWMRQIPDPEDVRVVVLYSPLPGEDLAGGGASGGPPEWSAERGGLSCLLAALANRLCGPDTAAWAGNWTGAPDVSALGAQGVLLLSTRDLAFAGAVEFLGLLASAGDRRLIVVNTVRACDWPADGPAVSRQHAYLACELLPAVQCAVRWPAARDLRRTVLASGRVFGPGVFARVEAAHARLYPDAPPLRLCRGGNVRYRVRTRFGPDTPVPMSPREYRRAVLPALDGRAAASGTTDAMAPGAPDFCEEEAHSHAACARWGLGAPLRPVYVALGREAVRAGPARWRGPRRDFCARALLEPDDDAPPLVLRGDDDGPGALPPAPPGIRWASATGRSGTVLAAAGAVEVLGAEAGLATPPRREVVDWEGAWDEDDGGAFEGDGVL
Nature of the series: pull-down. The settings on record: XL pull-down: oligos folded in 20 mM PB pH 7.4, 80 mM KCl, 4 C, 45 min, wash 50 mM Tris-HCl pH 7.5, 150 mM NaCl; ICP4 EMSA: 20 mM Tris-HCl pH 8, 25 mM KCl ….

Series [2] addresses T2, ICP8 (HSV-1, UniProt P04296 1-1196). Kind of series: EMSA; 0-3 ug ICP8; XL pull-down: oligos folded in 20 mM PB pH 7.4, 80 mM KCl, 4 C, 45 min, wash 50 mM Tris-HCl pH 7.5, 150 mM NaCl; ICP4 EMSA: 20 mM Tris-HCl pH 8, 25 mM KCl, 1.5. Particulars: protein: recombinant; tags: GST; label: 32P (Methods) / 33P. Background: A gel shift assay detects complexes by their altered migration in electrophoresis.

Series [3] concerns the target T2, ICP8. Kind of series: EMSA; 0-3 ug ICP8; Na+ and K+ buffers; XL pull-down: oligos folded in 20 mM PB pH 7.4, 80 mM KCl, 4 C, 45 min, wash 50 mM Tris-HCl pH 7.5, 150 mM NaCl; ICP4 EMSA: 20 mM Tris-HCl pH 8, 25 mM KCl, 1.5. The settings on record: protein: recombinant; tags: GST; label: 32P (Methods) / 33P; G4.
In series [4] the target is T3, ufICP4 (ultrafiltrated ICP4) (HSV-1 strain F, UniProt P08392 1-1298).
T3 sequence: T1 sequence
Kind of series: EMSA; 5-10x ufICP4; XL pull-down: oligos folded in 20 mM PB pH 7.4, 80 mM KCl, 4 C, 45 min, wash 50 mM Tris-HCl pH 7.5, 150 mM NaCl; ICP4 EMSA: 20 mM Tris-HCl pH 8, 25 mM KCl, 1.5. Particulars: protein: native, chain copies: 2, label: 5' FAM.

T2 sequence (P04296 whole entry): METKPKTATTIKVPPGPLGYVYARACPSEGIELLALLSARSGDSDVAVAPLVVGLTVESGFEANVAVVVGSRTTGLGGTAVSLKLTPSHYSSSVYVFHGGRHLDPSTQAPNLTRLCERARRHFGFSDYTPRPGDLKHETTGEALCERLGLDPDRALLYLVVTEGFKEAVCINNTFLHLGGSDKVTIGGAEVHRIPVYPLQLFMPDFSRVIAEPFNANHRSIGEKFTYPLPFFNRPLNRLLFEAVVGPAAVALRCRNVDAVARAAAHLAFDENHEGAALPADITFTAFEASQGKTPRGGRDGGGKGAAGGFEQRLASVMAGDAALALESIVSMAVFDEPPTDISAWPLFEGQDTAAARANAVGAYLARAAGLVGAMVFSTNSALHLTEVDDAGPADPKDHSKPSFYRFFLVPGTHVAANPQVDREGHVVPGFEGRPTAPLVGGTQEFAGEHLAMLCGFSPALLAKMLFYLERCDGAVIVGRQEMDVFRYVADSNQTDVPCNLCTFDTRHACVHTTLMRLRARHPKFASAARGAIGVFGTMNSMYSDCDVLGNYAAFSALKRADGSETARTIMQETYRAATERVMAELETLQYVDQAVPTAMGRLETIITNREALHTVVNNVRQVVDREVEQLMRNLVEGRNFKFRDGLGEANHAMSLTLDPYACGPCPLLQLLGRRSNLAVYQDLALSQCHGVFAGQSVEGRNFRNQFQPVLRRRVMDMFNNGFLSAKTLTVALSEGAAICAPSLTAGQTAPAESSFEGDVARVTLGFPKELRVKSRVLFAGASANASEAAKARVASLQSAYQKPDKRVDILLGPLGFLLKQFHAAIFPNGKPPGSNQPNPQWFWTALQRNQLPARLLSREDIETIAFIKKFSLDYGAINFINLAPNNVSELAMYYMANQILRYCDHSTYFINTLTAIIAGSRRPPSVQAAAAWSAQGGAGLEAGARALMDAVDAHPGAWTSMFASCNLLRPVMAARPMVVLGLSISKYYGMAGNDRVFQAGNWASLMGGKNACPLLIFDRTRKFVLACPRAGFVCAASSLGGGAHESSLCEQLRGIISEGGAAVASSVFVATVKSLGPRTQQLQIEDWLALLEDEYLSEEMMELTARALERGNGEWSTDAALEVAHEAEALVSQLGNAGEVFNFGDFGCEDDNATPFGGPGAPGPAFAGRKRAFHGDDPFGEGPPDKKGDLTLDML

Take TTTTTGGGGAGGGTGGGGAGGGTGGGGAAGG [B-myc]: the binding signal in series [1] came to 2.5 fold vs IE3. In series [1], “TTTTTGGGGGCGAGGGGCGGGAGGGGGCGAGGGGGGGGGCGAGGGGCGGGAGGGGGCGAGGGG [B-un2L2]” registered a binding signal of 2.5 fold vs IE3. For CGGGGCGGGCCGGGGGCGGGG [B-VEGF], in series [1], the binding signal stood at 2.5 fold vs IE3. “TTTTTCCGATCGTCCACACGGAGC (double strand) [B-IE3 (ICP4 consensus; IE-CS)]” came in with a binding signal (fold vs IE3 (reference)) in series [1] of 1. TTTTTTTTTTTTTTTTTTTTTTTTTTTTTT (ssDNA) [PolyT (T30)]: in the series with ICP8 [2], the binding result is recorded as “binds”. As to GGGAGGCGTGGCCTGGGCGGGACTGGGG (structured_DNA) [LTR-III (radiolabelled)], the binding result with ICP8 [3] was “no binding”. For the molecule GGGGGCGAGGGGCGGGAGGGGGCGAGGGG (structured_DNA) [un2 (radiolabelled)], the binding result in the series with ICP8 [3] is recorded as “no binding”. With GGAGTCGTGTCGCGTGTCGAGCGTGTGTAGTGG (ssDNA) [F-G-rich-scrambled], the binding result in series [4] (unfolded) is “no binding”.

For GGGGGCGAGGGGCGGGAGGGGGCGAGGGG (structured_DNA) [F-un2], in series [4] (G4), the binding result was “binds”. For GGGTTAGGGTTAGGGTTAGGG (structured_DNA) [hTel (radiolabelled)], the binding result in the series with ICP8 [3] was “no binding”.
